Test: soluble on expression in E. coli; label from the status in PepcDB or PDB records

Row | Sequence | soluble on expression in E. coli
1 | MNAPIEPHRFTLEPFEAHRFANLCGQLDEHLRLIEQRLDIEIRNRGNQFELIGETTQTRSAENLLRRLYRETKGTELTPDMVHLFLQESGVDGLDNHPAAEVGVSLRTKKGMIRPRGLNQQRYVKEVLSNDINFGIGPAGTGKTYLAVACAVDALEREQIRRILLVRPAVEAGEKLGFLPGDLAQKIDPYLRPLYDALYEMLGFEYVAKLIEKQVIEVAPLAYMRGRTLNNSFIILDESQNTTVEQMKMFLTRIGFGSTAVITGDITQVDLPKGTRSGLTHVIDVLKDVPGISFTHFKPKDVVRHPLVQRIVEAYERFDDQLSDGPSGNNGYSRDKNRNA | not soluble
2 | MSLKSLSYKRIYKSQEYLATLGTIEYRSLFGSYSLTVDDTVFAMVSDGELYLRACEQSAQYCVKYPPVWLTYKKCGRSVTLNYYRVDESLWRNQLKLVRLSKYSLDAALKEKSTRNTRERLKDLPNMSFHLEAILGEVGIKDVRALRILGAKMCWLRLRQQNSLVTEKILFMLEGAIIGIHEAALPVARRQELAEWADSLTPKQEFPAELEEGHHHHHH | soluble
3 | MDIKVVKGSITEVDADVIVNPANSRGLMGGGVAVVIKRLGGEEIEREAVEKAPIPVGSAVLTTAGKLKFKGVIHAPTMEEPAMPSSEEKVRKATRAALELADKECFKIVAIPGMGTGVGGVPKEVAARAMVEEIRKFEPKCLEKVILVDIDEEMVEAWEKVLGLRLEHHHHHH | soluble
4 | MFSWLGTDDRRRKDPEVFQTVSEGLKKLYKSKLLPLEEHYRFHEFHSPALEDADFDNKPMVLLVGQYSTGKTTFIRYLLEQDFPGMRIGPEPTTDSFIAVMQGDMEGIIPGNALVVDPKKPFRKLNAFGNAFLNRFVCAQLPNPVLESISVIDTPGILSGEKQRISRGYDFAAVLEWFAERVDRIILLFDAHKLDISDEFSEVIKALKNHEDKMRVVLNKADQIETQQLMRVYGALMWSLGKIVNTPEVIRVYIGSFWSHPLLIPDNRKLFEAEEQDLFRDIQSLPRNAALRKLNDLIKRARLAKVHAYIISSLKKEMPSVFGKDNKKKELVNNLAEIYGRIEREHQISPGDFPNLKRMQDQLQAQDFSKFQPLKSKLLEVVDDMLAHDIAQLMVLVRQEESQRPIQMVKGGAFEGTLHGPFGHGYGEGAGEGIDDAEWVVARDKPMYDEIFYTLSPVDGKITGANAKKEMVRSKLPNSVLGKIWKLADIDKDGMLDDDEFALANHLIKVKLEGHELPTSCLPTSCPRPRGKLPSDGVGGHSDGQC | not soluble
5 | MQKVHVQYIDGETDQMLRQDDLDGYTDETIPYSTAEGIKKFEGDGYELFKDNFPAGEKFDNDDTNDQFYTVIFKHHRENVDPNHSSADGTKGTKTLTETVHYKYANGTKAAEDQTAQVTFTRNGVLDDVTGIVAWGKWNEASQSYKALTSPTIAGYAPSEAVVKRSSNSDAEQGPTLTVIYTADA | soluble
6 | MFVLSIALLSCTTLCAATTEWWGDLRAHLNPARQAPFYDVTYDEKVNVCPQGLHADAIPEYVYFGTMLATMTVDEHDQCLQKCAEKPRCKAVNFFHPFAYQEKGFCELLTEGQLDNPSLMRPFRKATYYEKIRCRELDDVEDVEEAAPIGSEITEKLPEDMAREKKLDMSKLMKKLSAKVKEFNGGAGGFRAAR | not soluble
7 | MKHSGYLWAIGKNVWKRWKKRFFVLVQVSQYTFAMCSYREKKAEPQELLQLDGYTVDYTDPQPGLEGGRAFFNAVKEGDTVIFASDDEQDRILWVQAMYRATGQSHKPVPPTQ | soluble
8 | GKQNTSAIEALAPHSVVFTTAGGSSPEFTSSEISEQQAERWKDSTPLGVSQTRIESDQNANTTAVMGLPEGTPLPDSVGGFIEQGALLPAELADFLHVRA | not soluble
9 | MGSDKIHHHHHHMYCMEKCVENYFVLNEEIKDKKTFDGNFVENGKSLYEVIRIIDGIPLFLGNHIKRLENSFKIEKLSFPVSLDNIKQNIFKLIEANKCEVGNVKLVFNYFENKCDFYGYFVQHKYPDEYDYINGVKTILYHGERSNPNAKVINLNFRKNVDKKIKEKGVFEAILVDRNGNITEGSKSNIFMVKSNTVYTAPVEDVLPGITREIIVEICKQCGYTVVDEKINYKKIDQFEGLFISGTSPKVLPICQVDDIKFNSQGTEMIRNIRKAYDDYISNYIKNFDSRS | not soluble
10 | MATTTMTMIQALRSAMDVMLERDDNVVVYGQDVGYFGGVFRCTEGLQTKYGKSRVFDAPISESGIVGTAVGMGAYGLRPVVEIQFADYFYPASDQIVSEMARLRYRSAGEFIAPLTLRMPCGGGIYGGQTHSQSPEAMFTQVCGLRTVMPSNPYDAKGLLIASIECDDPVIFLEPKRLYNGPFDGHHDRPVTPWSKHPHSAVPDGYYTVPLDKAAITRPGNDVSVLTYGTTVYVAQVAAEESGVDAEVIDLRSLWPLDLDTIVESVKKTGRCVVVHEATRTCGFGAELVSLVQEHCFHHLEAPIERVTGWDTPYPHAQEWAYFPGPSRVGAALKKVMEV | soluble
11 | GVKYAYHGGAMANGIASVELVVALGKAGFLCSFGAAGLVPDAVEDAIKRIQAELPNGPYAVNLIHAPAEEALERGAVERFLKLGVKTVEASAYLGLTEHIVWYRLAGLSKNSDGSVKIGNKVIAKVSRTEVGRRFMEPAPQKLIDKLLAQGKVTQEQAELSKLVPMADDITAEADSGGHTDNRPFLTLLPTIIALRDEVQAQYNFSPALRVGAGGGIGTPEAALAAFNMGSAYIVLGSVNQACVEAGASEYTRKLLAQVEMAD | not soluble
12 | GPGSMPADEAQAPTQTEVYDRLKWNGWGVEDVQMQIDDENPLWVRHVDGKPIKNLLEFLYQEISGGVGPKEIPPLSPSIPLEKALAKLNKANINEAFMKDISAVLEKSQIRPDGKSRLCHIAGKNYRDLWRVRKGMVEHAPDCILLPNSHKDCVEIMRLAHKHNVVVIPFGGGTNVTGGVEADPFERARMIISVDMRRMNRMISIDRESRLATFETGVLGPDLDAQLFRHGFMLGHDPDSYIYSTLGGWIGARGSGAMSNQYGDIEDMVVAVKVATPTGIIETPTTSRTCGVDLNGLFIGSEGSFGIITEATIKLETIPETKLYEGYLFPTFEAGFSAFYTCTAKGIHPCTMRLYDEDDFRMSMAMSTTKHSFFQRLVSMGVKSFLERYRGWNLRRISLVIVGFEGTPDRVKFQRSETAAVFKQYGGVGVGRSAGATWQDKKYDLPYIRDFALSLSHWADVFETSVLYSQAIPCWRAVKAAVRQVWKEHGHRGWIGCHTAHQYKYGCCLYFTFASAQKDDMDMKIFLAIKKRATEAMLAHTGNLTHHHGIGYEHVPWMSRYMGPDALDLLFAVKQKVDPKNICNPGKLLPSPPRENESAAALKARQQRELMFDKMGVPGAVASHI | not soluble
13 | MKNTELEQLINDKLNSAAISDYAPNGLQVEGKETVQKIVTGVTASQALLDEAVRLQADAVIVHHGYFWKGESPVIRGMKRRRLKTLLANDINLYGWHLPLDAHPELGNNAQLAALLGITVKGEIEPLVPWGELSMPVPGLELASWIEARLGRKPLWCGDTGPENVQRVAWCTGGGQSFIDSAARFGVDAFITGEVSEQTIHSAREQGLHFYAAGHHATERGGIRALSEWLNENTALDVTFIDIPNPALEHHHHHH | soluble
14 | MGSDKIHHHHHHMSRTLHAQTHAWLKVFAISARHLSFTRAAEELHVTTGAVSQQIKQLETRLGFKLFRRLPRRLELTDEGQRLAAVVDQAYDAVGQEVRRLRTGVMSGVLRLRCVPSFLAKWLMPRLTRLQARFPDIELHVASEDSNLSLREGEFELAIDLNDGRYAGFQITTLMDEEIFAVCSPQLLRRRPPLVRPDDLGYYPLLHDVTAWRGSHDYAEWEHYLHALGAASVNVQRGYTFNRNHLTVEAAIAGMGVAIARRTLITNELDTGALIAPFAGTVATGKSYGLVYHPGALDDRRVRAVHDWIVEEAARSTAH | not soluble
15 | MPVINVKDDEDFRNQLSLAGLKSVIVDFTAVWCGPCKMIAPTFEALSNQYLGAVFLKVDVEICEKTSSENGVNSMPTFMVFQSGVRVEQMKGADAKALETMVKKYADNSAADSLVAGQMDLTPLVDKKQMECLNESDDTPLGRFLEGNCNLVSDCDEQLIISLPFNQPVKVHSILIKGVSDRAPKKVKVFINLPKTTDFDNATALEPTQMLEFDESSIQGHGQVVALKYVKFQNVQNIQFFIENNVGGGDVTELVKLTVFGTPLSALNMNEFKRVAGKAGDAAH | not soluble

From the DeepSol protein solubility set
